This is an account of results in article PMC4742562, “Structure and Interactions of a Dimeric Variant of sHIP, a Novel Virulence Determinant of Streptococcus pyogenes” (Frontiers in Microbiology, 2016).

Data set [1] deals with the molecule itself. The experiment in a line: AUC; sedimentation velocity, 20°C, 50000 rpm, 20 mM MES pH 5.5; c(S) distribution compared with theoretical sedimentation coefficients (HYDROPRO).
The target of data set [2] is T1, HRGsingle peptide (single heparin-binding motif of histidine-rich glycoprotein) (human).
T1 construct: also called GHHPHG; source: synthetic peptide (Biosyntan GmbH, Berlin)
As to the kind of experiment: ITC; 0.5 mM HRGsingle peptide titrated into 0.05 mM sHIPwt or sHIPqp, 20 mM MES pH 5.5, 25°C; one independent binding site model. As to conditions: both partners purified. In general terms: ITC needs no label: the signal is the heat of the interaction.

B1: quadruple mutant protein sHIP, sHIPqp (natural protein)
chain: SMKQDQLIVEKMEQTYEAFSPKLANLIEALDAFKEHYEEYATLRNFYSSDEWFRLANQPWDDIPSGVLSEDLLFDMIGDHNQLAADIADLAPIMAKHM
notes: protein sHIP, S. pyogenes, UniProt Q99XU0, residues Lys3-Met98 with Leu84, Leu88, Tyr95 mutated to alanine and Cys65 to serine; Dimer by AUC and in the crystal; For NMR the protein was double-labelled (15N, 13C), grown in minimal medium; also called sHIPqp mutant; sHIP mutant; source: E. coli Rosetta BL21 (DE3), purified (IMAC, His-tag removed with TEV protease, reverse phase chromatography); not …
By stoichiometry N is commonly meant a count of units in the complex or per binding partner. Broadly, the Kd is the constant that tells how readily two partners part at equilibrium. On to B1, for which, in data set [1], the “stoichiometry N” value was found to be 2. This molecule gave a Kd in data set [2] of 2.8 ± 0.3 µM.
